Experimental data from US10087225B2, “Formulation of MK2 inhibitor peptides” (MOERAE MATRIX, INC., priority 2015, dated 2018).

Legend:
Experiment in all cases: Kinase Profiling Assay
Type in all cases: biochemical
IKKα(h) = molecular target: T1, IKKα(h) (Homo sapiens, UniProt O15111)
T1 sequence (O15111 1-745): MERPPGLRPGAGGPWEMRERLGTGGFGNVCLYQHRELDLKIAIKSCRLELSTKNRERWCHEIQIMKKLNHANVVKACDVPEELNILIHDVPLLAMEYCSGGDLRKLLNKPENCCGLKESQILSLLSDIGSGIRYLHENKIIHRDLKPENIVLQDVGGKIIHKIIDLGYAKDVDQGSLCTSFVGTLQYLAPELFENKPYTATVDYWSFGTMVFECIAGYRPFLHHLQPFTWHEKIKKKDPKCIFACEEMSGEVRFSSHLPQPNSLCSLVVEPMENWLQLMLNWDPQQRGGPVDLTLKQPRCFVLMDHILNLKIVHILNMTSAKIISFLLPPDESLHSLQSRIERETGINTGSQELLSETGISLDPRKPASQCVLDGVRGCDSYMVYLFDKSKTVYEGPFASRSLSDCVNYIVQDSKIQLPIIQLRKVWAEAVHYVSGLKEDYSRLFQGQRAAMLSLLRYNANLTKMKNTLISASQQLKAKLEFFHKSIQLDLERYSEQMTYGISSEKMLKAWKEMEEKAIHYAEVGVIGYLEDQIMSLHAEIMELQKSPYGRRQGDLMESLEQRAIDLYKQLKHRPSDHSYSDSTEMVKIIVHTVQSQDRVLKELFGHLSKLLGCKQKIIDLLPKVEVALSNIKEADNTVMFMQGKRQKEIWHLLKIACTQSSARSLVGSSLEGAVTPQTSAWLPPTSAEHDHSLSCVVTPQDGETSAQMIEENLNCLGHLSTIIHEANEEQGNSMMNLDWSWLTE

Rsk1(h) = Rsk1(h) (Homo sapiens, UniProt Q15418)
MAPK1(h) = MAPK1(h) (Homo sapiens, UniProt P27361)
Fms(Y969C)(h) = Fms(Y969C)(h) (Homo sapiens, UniProt P07333, Y969C)
Ret(V804L)(h) = Ret(V804L)(h) (Homo sapiens, UniProt P07949, V804L); conditions: 100 μM
EGFR(h) = EGFR(h) (Homo sapiens, UniProt P00533); conditions: 100 μM
SAPK2b(h) = SAPK2b(h) (Homo sapiens, UniProt Q15759); conditions: 100 μM
Flt3(h) = Flt3(h) (Homo sapiens, UniProt P36888); conditions: 100 μM
Hck(h) activated = Hck(h) activated (Homo sapiens, UniProt P08631); conditions: 100 μM
EphB3(h) = molecular target: T2, EphB3(h) (Homo sapiens, UniProt P54753); conditions: 100 μM
T2 sequence (P54753 34-998): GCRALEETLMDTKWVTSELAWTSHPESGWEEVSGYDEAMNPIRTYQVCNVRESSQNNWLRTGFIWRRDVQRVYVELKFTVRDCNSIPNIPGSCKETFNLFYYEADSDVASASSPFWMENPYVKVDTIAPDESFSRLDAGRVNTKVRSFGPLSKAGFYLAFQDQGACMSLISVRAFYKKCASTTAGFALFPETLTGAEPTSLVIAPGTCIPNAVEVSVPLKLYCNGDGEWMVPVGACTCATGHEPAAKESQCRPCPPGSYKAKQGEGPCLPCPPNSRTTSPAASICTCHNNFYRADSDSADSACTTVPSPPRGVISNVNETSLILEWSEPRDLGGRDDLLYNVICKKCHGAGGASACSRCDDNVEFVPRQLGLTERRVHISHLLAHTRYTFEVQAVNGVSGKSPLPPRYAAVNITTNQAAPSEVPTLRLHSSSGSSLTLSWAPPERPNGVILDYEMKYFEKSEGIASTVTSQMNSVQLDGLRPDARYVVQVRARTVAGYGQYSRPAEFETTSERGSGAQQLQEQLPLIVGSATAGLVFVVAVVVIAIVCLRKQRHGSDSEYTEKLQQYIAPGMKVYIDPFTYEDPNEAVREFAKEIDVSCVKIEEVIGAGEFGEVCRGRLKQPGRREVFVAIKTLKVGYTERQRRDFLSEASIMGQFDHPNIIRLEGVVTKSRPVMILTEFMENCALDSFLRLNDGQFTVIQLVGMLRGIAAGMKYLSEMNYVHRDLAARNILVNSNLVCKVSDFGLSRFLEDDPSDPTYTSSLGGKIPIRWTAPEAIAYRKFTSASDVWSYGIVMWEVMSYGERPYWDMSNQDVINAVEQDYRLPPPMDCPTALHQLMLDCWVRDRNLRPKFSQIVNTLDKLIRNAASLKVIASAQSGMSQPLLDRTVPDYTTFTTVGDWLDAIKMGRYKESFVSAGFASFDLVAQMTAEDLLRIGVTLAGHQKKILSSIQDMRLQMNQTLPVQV

Met(M1268T)(h) = Met(M1268T)(h) (Homo sapiens, UniProt P08581, M1250T); conditions: 100 μM
AMPKa1(h) = AMPKa1(h) (Homo sapiens, UniProt Q13131); conditions: 100 μM
PKCθ(h) = PKCθ(h) (Homo sapiens, UniProt Q04759); conditions: 100 μM
Chain of PKCθ(h) (Q04759 whole entry): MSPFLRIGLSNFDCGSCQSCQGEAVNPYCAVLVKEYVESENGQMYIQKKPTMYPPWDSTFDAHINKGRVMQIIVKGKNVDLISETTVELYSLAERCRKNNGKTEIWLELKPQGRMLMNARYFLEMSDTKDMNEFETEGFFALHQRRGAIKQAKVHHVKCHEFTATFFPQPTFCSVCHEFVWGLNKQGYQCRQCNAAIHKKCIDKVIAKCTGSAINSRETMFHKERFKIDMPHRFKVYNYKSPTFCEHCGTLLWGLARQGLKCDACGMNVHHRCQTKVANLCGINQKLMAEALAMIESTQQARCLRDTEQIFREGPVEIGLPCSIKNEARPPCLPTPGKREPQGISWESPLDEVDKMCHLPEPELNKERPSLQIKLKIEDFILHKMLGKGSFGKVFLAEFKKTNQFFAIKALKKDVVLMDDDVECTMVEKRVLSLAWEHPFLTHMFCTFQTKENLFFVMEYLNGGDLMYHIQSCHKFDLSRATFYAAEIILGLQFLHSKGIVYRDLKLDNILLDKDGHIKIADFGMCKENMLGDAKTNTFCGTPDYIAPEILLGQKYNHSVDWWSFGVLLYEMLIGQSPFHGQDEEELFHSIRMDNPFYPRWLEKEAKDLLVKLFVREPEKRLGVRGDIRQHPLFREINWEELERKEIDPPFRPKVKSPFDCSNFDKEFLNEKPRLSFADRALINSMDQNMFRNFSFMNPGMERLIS

Chain of Hck(h) activated (P08631 whole entry): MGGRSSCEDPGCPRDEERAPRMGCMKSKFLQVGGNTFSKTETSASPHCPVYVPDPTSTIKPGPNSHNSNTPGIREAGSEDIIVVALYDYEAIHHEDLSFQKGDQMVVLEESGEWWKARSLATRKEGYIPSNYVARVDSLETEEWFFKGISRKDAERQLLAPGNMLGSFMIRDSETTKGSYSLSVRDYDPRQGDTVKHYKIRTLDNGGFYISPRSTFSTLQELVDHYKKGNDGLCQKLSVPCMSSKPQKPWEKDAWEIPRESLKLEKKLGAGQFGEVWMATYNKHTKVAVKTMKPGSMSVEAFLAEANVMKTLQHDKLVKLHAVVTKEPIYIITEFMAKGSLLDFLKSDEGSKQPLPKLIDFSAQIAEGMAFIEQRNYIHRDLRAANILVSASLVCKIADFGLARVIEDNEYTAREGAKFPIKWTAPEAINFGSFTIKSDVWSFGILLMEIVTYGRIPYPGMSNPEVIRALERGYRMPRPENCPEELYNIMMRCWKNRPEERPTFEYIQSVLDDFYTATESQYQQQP
Chain of Rsk1(h) (Q15418 whole entry): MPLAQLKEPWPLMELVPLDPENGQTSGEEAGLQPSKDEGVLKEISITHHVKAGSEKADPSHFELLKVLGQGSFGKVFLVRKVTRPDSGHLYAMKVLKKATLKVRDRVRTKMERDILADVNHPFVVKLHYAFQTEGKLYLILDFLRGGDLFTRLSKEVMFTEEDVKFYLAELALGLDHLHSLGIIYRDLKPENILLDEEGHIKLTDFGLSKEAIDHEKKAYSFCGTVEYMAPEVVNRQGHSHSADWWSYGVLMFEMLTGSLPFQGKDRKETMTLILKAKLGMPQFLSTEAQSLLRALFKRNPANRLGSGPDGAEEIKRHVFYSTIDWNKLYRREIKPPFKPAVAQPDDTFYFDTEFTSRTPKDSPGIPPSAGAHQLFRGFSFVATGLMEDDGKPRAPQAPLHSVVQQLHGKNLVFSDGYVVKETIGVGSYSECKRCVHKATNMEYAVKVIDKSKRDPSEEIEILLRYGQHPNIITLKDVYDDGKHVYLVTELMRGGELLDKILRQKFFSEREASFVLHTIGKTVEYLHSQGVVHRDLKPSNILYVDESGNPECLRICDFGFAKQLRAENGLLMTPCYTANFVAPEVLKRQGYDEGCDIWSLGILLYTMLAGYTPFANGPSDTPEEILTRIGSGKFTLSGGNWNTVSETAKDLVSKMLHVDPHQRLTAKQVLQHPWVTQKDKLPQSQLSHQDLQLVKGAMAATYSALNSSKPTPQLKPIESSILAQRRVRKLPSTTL
Chain of MAPK1(h) (P27361 whole entry): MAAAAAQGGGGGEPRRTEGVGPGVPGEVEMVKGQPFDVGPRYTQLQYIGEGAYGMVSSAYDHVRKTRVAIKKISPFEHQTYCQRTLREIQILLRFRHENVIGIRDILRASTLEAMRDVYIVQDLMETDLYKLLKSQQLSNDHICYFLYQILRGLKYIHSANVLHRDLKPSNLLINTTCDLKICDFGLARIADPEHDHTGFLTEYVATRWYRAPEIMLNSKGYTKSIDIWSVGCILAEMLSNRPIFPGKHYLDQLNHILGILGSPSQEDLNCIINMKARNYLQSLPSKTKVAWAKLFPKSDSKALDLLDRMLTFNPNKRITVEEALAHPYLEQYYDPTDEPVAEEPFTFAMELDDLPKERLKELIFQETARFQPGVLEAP
Chain of SAPK2b(h) (Q15759 whole entry): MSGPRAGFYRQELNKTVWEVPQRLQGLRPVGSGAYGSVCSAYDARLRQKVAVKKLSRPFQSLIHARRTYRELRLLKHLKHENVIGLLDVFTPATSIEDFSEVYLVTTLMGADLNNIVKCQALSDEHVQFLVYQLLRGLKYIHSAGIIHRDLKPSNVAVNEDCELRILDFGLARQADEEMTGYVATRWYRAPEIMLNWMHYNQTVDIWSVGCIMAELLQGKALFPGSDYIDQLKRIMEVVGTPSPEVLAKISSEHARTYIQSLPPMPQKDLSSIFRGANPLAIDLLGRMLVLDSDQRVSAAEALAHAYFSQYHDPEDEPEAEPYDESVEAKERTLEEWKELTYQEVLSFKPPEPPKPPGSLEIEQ
Chain of AMPKa1(h) (Q13131 whole entry): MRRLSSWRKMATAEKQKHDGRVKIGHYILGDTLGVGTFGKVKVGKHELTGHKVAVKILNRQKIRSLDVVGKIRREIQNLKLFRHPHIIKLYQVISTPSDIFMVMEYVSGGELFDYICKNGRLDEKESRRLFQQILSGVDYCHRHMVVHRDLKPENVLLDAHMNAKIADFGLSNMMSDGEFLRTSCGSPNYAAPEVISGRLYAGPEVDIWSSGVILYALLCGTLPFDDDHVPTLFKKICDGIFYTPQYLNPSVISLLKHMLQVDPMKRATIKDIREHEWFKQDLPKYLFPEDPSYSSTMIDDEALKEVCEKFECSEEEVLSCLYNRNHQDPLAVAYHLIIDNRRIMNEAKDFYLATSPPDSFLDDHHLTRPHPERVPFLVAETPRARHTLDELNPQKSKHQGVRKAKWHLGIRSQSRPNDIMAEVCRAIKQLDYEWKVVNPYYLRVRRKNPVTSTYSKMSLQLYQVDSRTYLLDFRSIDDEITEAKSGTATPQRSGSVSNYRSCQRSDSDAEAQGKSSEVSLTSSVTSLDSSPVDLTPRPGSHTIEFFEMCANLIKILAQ
Chain of AMPKa1(h) (Q9Y478 whole entry partner): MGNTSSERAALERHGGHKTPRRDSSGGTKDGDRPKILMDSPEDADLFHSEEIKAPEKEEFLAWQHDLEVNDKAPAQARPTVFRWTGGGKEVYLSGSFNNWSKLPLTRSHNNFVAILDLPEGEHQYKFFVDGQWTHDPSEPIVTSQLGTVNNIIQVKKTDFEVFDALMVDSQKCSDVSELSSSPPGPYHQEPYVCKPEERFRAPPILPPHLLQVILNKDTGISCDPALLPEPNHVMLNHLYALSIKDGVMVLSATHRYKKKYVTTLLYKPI
Chain of AMPKa1(h) (P54619 whole entry partner): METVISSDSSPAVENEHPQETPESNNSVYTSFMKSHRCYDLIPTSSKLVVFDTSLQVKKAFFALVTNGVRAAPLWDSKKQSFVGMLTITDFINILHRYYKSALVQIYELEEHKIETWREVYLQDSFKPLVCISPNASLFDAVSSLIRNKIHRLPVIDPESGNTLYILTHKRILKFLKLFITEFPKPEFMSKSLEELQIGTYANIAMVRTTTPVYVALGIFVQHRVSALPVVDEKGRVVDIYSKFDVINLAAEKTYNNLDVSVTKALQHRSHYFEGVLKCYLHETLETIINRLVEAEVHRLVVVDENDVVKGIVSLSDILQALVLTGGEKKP

| Substance | activity at 100 µM (IKKα(h)) [%] | activity at 100 µM (Rsk1(h)) [%] | activity at 100 µM (MAPK1(h)) [%] | activity at 100 µM (Fms(Y969C)(h)) [%] | % activity (Ret(V804L)(h)) [%] | % activity (EGFR(h)) [%] | % activity (SAPK2b(h)) [%] | % activity (Flt3(h)) [%] | % activity (Hck(h) activated) [%] | % activity (IKKα(h); 100 μM) [%] | % activity (EphB3(h)) [%] | % activity (Met(M1268T)(h)) [%] | % activity (Rsk1(h); 100 μM) [%] | % activity (AMPKa1(h)) [%] | % activity (PKCθ(h)) [%] | % activity (MAPK1(h); 100 μM) [%] | % activity (Fms(Y969C)(h); 100 μM) [%] |
| --- | --- | --- | --- | --- | --- | --- | --- | --- | --- | --- | --- | --- | --- | --- | --- | --- | --- |
| H-YARAAARQARAKALARQLGVAA-OH [MMI-0100] | 108 | 86 | 108 | 126 | – | – | – | – | – | – | – | – | – | – | – | – | – |
| HRRIKAWLKKIKALARQLGVAA (Mammalian) [MMI-0500] | – | – | – | – | 20 | -1 | 42 | 17 | 67 | 50 | 79 | 239 | 34 | 35 | 62 | – | – |
| YARAAARQARAKALNRQLGVA (Mammalian) [MMI-0200] | – | – | – | – | 100 | 83 | 95 | 99 | 100 | – | 128 | 143 | – | 108 | 101 | 97 | 88 |
